Laboratory results published in paper PMC8087810, “Interfacing aptamers, nanoparticles and graphene in a hierarchical structure for highly selective detection of biomolecules in OECT devices”.

Molecular target: alpha-thrombin (UniProt P00734;P00734 328-363;364-622)
Assay: OECT aptasensor (sigmoidal fit of delta ratio, EC50); EC50 of sensor response, 1-100 pM thrombin, Tris buffer; LoD 5.000±0.087 pM; surface-immobilized aptamer; Thrombin: Tris buffer (composition not in material); BSA: PBS (137 mM NaCl, 2.7 mM KCl, 10 mM Na2HPO4, 1.8 mM KH2PO4), pH 7.4 (Tris stated as same pH); BSA and

B1: TBA15 (thrombin binding aptamer, Fc/SH modified) (structured_DNA)
DNA: GGTTGGTGTGGTTGG
modifications: 5' ferrocene; 3' C6-SH thiol, immobilized on AuNPs-PMLG gate electrode, MCH blocked
  apparent K (half saturation): 0.0489 nM
